Reference: US20150344570A1 (published 2015)
Numbering of substitutions follows the chain as printed. Values belong to the binder of their own block, whether it stands above or below them.

Columns and labels:
FcγRIIIa = target: T1, FcγRIIIa (human, UniProt P08637 17-208); assay: ratio of SPR KDs: KD of GpH7-G1d/GpL16-k0 divided by KD of this antibody
T1 construct: extracellular domain; also called FcgRIIIa; CD16A; not shown: His tag attached to the C terminus
Experimental: The prepared antibodies were compared for the FcγRIIIa-binding activity using, as an indicator, KD for FcγRIIIa that was determined according to the method described in Reference Example 2.
(§1) Analysis of interaction between objective antibody and the FcγR was carried out using Biacore T100 (GE Healthcare). HBS-EP+ (GE Healthcare) was used as the running buffer, and the measurement temperature was set to 25° C. Chips produced by immobilizing the antigen peptide by the amine coupling method to a Series S Sencor Chip CM5 (GE Healthcare), or alternatively, chips produced by allowing preliminarily biotinylated antigen peptides to interact with and immobilize onto a Series S Sensor Chip SA (certified) (GE Healthcare) were used. Antibodies of interest were captured onto an antigen peptide-immobilized chip, and allowed to interact to each FcγR diluted with running buffer. To regenerate and repeatedly use the chip, the antibodies captured on the chip were washed off by reacting 10 mM glycine-HCl, pH 1.5.
Specifically, to calculate association rate constant ka (L/mol/s) and dissociation rate constant kd (1/s), sensorgrams obtained by measurement were processed for global fitting by Biacore Evaluation Software using 1:1 Langmuir binding model and dissociation constant KD (mol/1) was calculated from the resulting values.

[1] = target: T2, FcγRIIIa F extracellular domain with C-terminal His tag (human, UniProt P08637 17-208); assay: SPR (Biacore); KD for FcγRIIb divided by KD for FcγRIIIa F
T2 construct: extracellular domain; Soluble receptor, F158 allotype; also called FcgRIIIa F; FcgRIIIaF; not shown: His tag at the C terminus
Experimental: The prepared antibodies were assayed as to the KDs for FcγRIIIa and FcγRIIb according to the method described in Reference Example 2.
as §1

FcgRIIaR = target: T3, FcgRIIaR (human, UniProt P12318 34-217); assay: SPR (Biacore); KD of H240-Kn033/H240-Hl033/L73-k0 divided by KD of the variant
T3 construct: extracellular domain; also called FcγRIIa R; FcγRIIa type R; not shown: His tag at the C terminus
T3 sequence (looked up): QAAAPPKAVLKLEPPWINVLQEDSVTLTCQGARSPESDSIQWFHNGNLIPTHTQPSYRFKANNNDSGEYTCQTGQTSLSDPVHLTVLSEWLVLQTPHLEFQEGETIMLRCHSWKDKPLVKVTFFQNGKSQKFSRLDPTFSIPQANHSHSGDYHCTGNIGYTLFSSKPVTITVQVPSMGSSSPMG
Experimental: (§2) Binding of the produced variants to FcgRIa, FcgRIIaR, FcgRIIaH, FcgRIIb, FcgRIIIaF, and FcgRIIIaV was measured according to the method of Reference Example 8.
(§3) Analysis of interaction between objective antibody and the FcγR was carried out using Biacore T100 (GE Healthcare), Biacore T200, Biacore A100, and Biacore 4000. HBS-EP+ (GE Healthcare) was used as the running buffer, and the measurement temperature was set to 25° C. Chips produced by immobilizing the antigen peptide by the amine coupling method to a Series S sensor Chip CM5 (GE Healthcare), chips produced by allowing preliminarily biotinylated antigen peptides to interact with and immobilize onto a Series S Sensor Chip SA (certified) (GE Healthcare), chips produced by immobilizing Protein L (ACTIGEN, BioVision) to Series S Sencor Chip CM5 (GE Healthcare), or chips produced by immobilizing Protein A/G (Thermo Scientific) to Series S Sencor Chip CM5 (GE Healthcare) were used. Antibodies of interest were captured onto these chips, and allowed to interact to each FcγR diluted with running buffer. To regenerate and repeatedly use the chip, the antibodies captured onto the chip were washed off by reacting 10 mM glycine-HCl, pH 1.5.

FcgRIIb = target: T4, FcgRIIb (human, UniProt P31994 43-217); assay: as above
T4 construct: extracellular domain; also called FcγRIIb; CD32B; not shown: His tag at the C terminus
T4 sequence (looked up): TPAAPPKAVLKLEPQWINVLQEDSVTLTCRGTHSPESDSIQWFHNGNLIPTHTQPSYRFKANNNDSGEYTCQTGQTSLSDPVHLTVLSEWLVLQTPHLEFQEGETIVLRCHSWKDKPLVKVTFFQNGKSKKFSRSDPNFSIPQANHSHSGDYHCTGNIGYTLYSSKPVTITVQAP
Experimental: as §2, §3

FcgRIIIaF = target: T5, FcgRIIIaF (human, UniProt P08637 17-208); assay: as above
T5 construct: extracellular domain; also called FcγRIIIa F; not shown: His tag at the C terminus
Experimental: as §2, §3

FcgRIIIaV = target: T6, FcgRIIIaV (human, UniProt P08637 17-208); assay: as above
T6 construct: extracellular domain; also called FcγRIIIa V; not shown: His tag at the C terminus
Experimental: as §2, §3

FcgRIIaH = target: T7, FcgRIIaH (human, UniProt P12318 34-217); assay: as above
T7 construct: extracellular domain; also called FcγRIIa H; FcγRIIa type H; not shown: His tag at the C terminus
T7 sequence (looked up): T3 sequence (looked up) with R134H
Experimental: as §2, §3

T2 sequence (P08637 17-208): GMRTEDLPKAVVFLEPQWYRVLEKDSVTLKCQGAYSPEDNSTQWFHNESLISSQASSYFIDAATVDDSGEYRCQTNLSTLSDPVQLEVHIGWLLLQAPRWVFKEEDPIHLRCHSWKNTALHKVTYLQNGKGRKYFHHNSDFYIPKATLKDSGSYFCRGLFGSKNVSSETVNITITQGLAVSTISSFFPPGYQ
T5 sequence (P08637 17-208): as above
T6 sequence (P08637 17-208 F176V limits assumed): as the sequence (P08637 17-208) above, with F160V counted along it
T1 sequence (P08637 17-208): as the sequence (P08637 17-208) above

B3: GpH7-A5/GpH7-B3/GpL16-k0 (antibody, human IgG1, kappa)
heavy 1: not shown
heavy 2: not shown
light: DIVMTQSPLSLPVTPGEPASISCQASESLVHSNRNTYLHWYLQKPGQSPQLLIYKVSNRFSGVPDRFSGSGSGTDFTLKISRVEAEDVGVYYCSQNTHVPPTFGQGTKVEIERTVAAPSVFIFPPSDEQLKSGTASVVCLLNNFYPREAKVQWKVDNALQSGNSQESVTEQDSKDSTYSLSSTLTLSKADYEKHKVYACEVTHQGLSSPVTKSFNRGEC
notes: also called A5/B3; HeCon Ab
FcγRIIIa F/FcγRIIb ratio [1]: 1.9

B5: GpH7-TA7/GpH7-B3/GpL16-k0 (antibody, human IgG1, kappa)
heavy 1: QVQLVQSGAEVKKPGASVTVSCKASGYTFTDYEMHWIRQPPGEGLEWIGAIDPKTGDTAYSESFQDRVTLTADKSTSTAYMELSSLTSEDTAVYYCTRFYSYTYWGQGTLVTVSSASTKGPSVFPLAPSSKSTSGGTAALGCLVKDYFPEPVTVSWNSGALTSGVHTFPAVLQSSGLYSLSSVVTVPSSSLGTQTYICNVNHKPSNTKVDKKVEPKSCDKTHTCPPCPAPEYLWGPSVFLFPPKPKDTLMISRTPEVTCVVVDVSHEDPEVKFNWYVDGVEVHNAKTKPREEQYNATYRVVSVLTVLHQDWLNGKEYKCKVSNKALPAPIEKTISKAKGQPREPQVYTLPPSRKELTKNQVSLTCLVKGFYPSDIAVEWESNGQPENNYKTTPPVLDSDGSFFLYSKLTVDKSRWQQGNVFSCSVMHEALHNRYTQKSLSLSP
heavy 2: not shown
light: B3 light
notes: Heterodimerized anti-glypican-3 IgG1; also called TA7/B3
FcγRIIIa F/FcγRIIb ratio [1]: 14

B8: GpH7-A57/GpH7-B78/GpL16-k0 (antibody, human IgG1, kappa)
heavy 1: B5 heavy 1 with Y232L, W234G, S237D, A296S, A328L, I330E
heavy 2: B5 heavy 1 with Y232L, W234G, S237D, A296S, A328L, I330E, K354D, R433H, K437E
light: B3 light
notes: Anti-glypican-3 IgG1; also called A57/B78
FcγRIIIa F/FcγRIIb ratio [1]: 100

B9: H240-Kn229/H240-Hl068/L73-k0 (antibody, human IgG1, kappa)
heavy 1: QDQLVQSGAEVKKPGASVKVSCKASGFNIKDTYIQWVRQAPGQGLEWMGRIDPLRKQTKYREKFEGRVTITADTSTNTAYMELSSLRSEDTAVYYCVRSGREFDYWGQGTLVTVSSASTKGPSVFPLAPSSKSTSGGTAALGCLVKDYFPEPVTVSWNSGALTSGVHTFPAVLQSSGLYSLSSVVTVPSSSLGTQTYICNVNHKPSNTKVDKKVEPKSCDKTHTCPPCPAPEYYWGPIVFLFPPKPKDTLMISRTPEVTCVVVDVSDEDPEVKFNWYVDGVEVHNAKTKPREEQYNATYRVVSVLTVLHQDWLNGKEYKCKVSNKDLPAPIEKTISKAKGQPREPQVCTLPPSRDELTKNQVSLWCLVKGFYPSDIAVEWESNGQPENNYKTTPPVLDSDGSFFLYSKLTVDKSRWQQGNVFSCSVMHEALHNHYTQKSLSLSP
heavy 2: QDQLVQSGAEVKKPGASVKVSCKASGFNIKDTYIQWVRQAPGQGLEWMGRIDPLRKQTKYREKFEGRVTITADTSTNTAYMELSSLRSEDTAVYYCVRSGREFDYWGQGTLVTVSSASTKGPSVFPLAPSSKSTSGGTAALGCLVKDYFPEPVTVSWNSGALTSGVHTFPAVLQSSGLYSLSSVVTVPSSSLGTQTYICNVNHKPSNTKVDKKVEPKSCDKTHTCPPCPAPELLGGPSVFLFPPKPKDTLMISRTPEVTCVVVDVSHEEPEVKFNWYVDGVEVHNAKTKPREEQYNSTYRVVSVLTVLHQDWLNGKEYKCKVSNDALPKPIEETISKAKGQPREPQVYTLPPSRCELTKNQVSLSCAVKGFYPSDIAVEWESNGQPENNYKTTPPVLDSDGSFFLVSKLTVDKSRWQQGNVFSCSVMHEALHNHYTQKSLSLSP
light: DIQMTQSPSSLSASVGDRVTITCRASQDIHKYIAWYQQKPGQAPRLLIQYTSTLQPGVPSRFSGSGSGTDYTFTISSLQPEDIATYYCLQYEQLRTFGGGTKVEIKRTVAAPSVFIFPPSDEQLKSGTASVVCLLNNFYPREAKVQWKVDNALQSGNSQESVTEQDSKDSTYSLSSTLTLSKADYEKHKVYACEVTHQGLSSPVTKSFNRGEC
fold 2aR (FcgRIIaR): 46.3 fold
fold 2b (FcgRIIb): 16.5 fold
fold 3aF (FcgRIIIaF): 138 fold
fold 3aV (FcgRIIIaV): 62.3 fold
fold 2aH (FcgRIIaH): 13.3 fold

More lines, now with the values ahead:

KD ratio 1 (FcγRIIIa): 1 fold
B1: GpH7-G1d/GpL16-k0 (antibody, human IgG1, kappa)
heavy: not shown
light: B3 light
notes: Anti-glypican-3 IgG1 whose H chain lacks the C-terminal Gly and Lys; Used as the native IgG1 control; also called native IgG1

FcγRIIIa F/FcγRIIb ratio [1]: 2.5
B2: GpH7-G1d/GpL16-k0 (antibody, human IgG1, kappa)
heavy: not shown
light: B3 light
notes: Anti-glypican-3 IgG1 with C-terminal Gly and Lys removed; also called native IgG1

FcγRIIIa F/FcγRIIb ratio [1]: 5.3
B4: GpH7-TA7/GpH7-TA45/GpL16-k0 (antibody, human IgG1, kappa)
heavy 1: B5 heavy 1
heavy 2: B5 heavy 1 with K354D, R433H, K437E
light: B3 light
notes: Anti-glypican-3 IgG1; also called TA7/TA45

FcγRIIIa F/FcγRIIb ratio [1]: 7.9
B6: GpH7-A5/GpH7-B78/GpL16-k0 (antibody, human IgG1, kappa)
heavy 1: not shown
heavy 2: B5 heavy 1 with Y232L, W234G, S237D, A296S, A328L, I330E, K354D, R433H, K437E
light: B3 light
notes: Heterodimerized anti-glypican-3 IgG1; also called A5/B78

FcγRIIIa F/FcγRIIb ratio [1]: 244
B7: GpH7-TA7/GpH7-B78/GpL16-k0 (antibody, human IgG1, kappa)
heavy 1: B5 heavy 1
heavy 2: B5 heavy 1 with Y232L, W234G, S237D, A296S, A328L, I330E, K354D, R433H, K437E
light: B3 light
notes: Heterodimerized anti-glypican-3 IgG1; also called TA7/B78

fold 2aR (FcgRIIaR): 1.5 fold
fold 2b (FcgRIIb): 1.3 fold
fold 3aF (FcgRIIIaF): 3.7 fold
fold 3aV (FcgRIIIaV): 7 fold
fold 2aH (FcgRIIaH): 0.7 fold
B10: H240-afucosyl_G1d/L73-k0 (antibody, human IgG1, kappa)
heavy: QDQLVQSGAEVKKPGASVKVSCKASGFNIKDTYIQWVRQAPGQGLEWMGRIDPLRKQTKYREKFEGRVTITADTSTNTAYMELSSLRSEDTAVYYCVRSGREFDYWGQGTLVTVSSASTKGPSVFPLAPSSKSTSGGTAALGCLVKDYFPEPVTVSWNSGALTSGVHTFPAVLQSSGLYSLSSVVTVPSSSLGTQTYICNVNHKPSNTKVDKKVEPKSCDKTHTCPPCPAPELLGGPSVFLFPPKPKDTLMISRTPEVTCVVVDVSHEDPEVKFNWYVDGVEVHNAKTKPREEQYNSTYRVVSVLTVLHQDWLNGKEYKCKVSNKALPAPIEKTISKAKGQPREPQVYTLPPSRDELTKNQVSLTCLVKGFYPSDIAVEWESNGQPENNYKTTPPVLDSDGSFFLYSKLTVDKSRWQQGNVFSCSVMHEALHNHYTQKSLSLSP
light: B9 light
modifications: fucose removed from the sugar chain (afucosylated)
notes: Anti-epiregulin IgG1, afucosylated; also called afucosylated antibody
